For 19 sequences, Kd results are on record in the Immune Epitope Database (IEDB).

Some targets named below: HLA-A*31:01; HLA-A*11:01; HLA-A*03:01; HLA-A*33:01; HLA-A*68:01.
Test in all cases: IEDB peptide-MHC binding, purified MHC/competitive/radioactivity; filed as Kd, often an IC50 or EC50 that approximates it; ≥ and ≤ were set here for values at or beyond the usual limits of such assays
In a further assay the target is HLA-A*02:03. The conditions noted are these: source organism: Dengue virus 3 Martinique/1243/1999.
Where [1] appears, read: source organism: Vaccinia virus WR.
The mark [2] stands for this setting: source organism: SARS coronavirus Tor2.
The mark [3] stands for this setting: source organism: Mammarenavirus guanaritoense.
[4] abbreviates: source organism: Mammarenavirus brazilense.
Where [5] appears, read: source organism: Mammarenavirus juninense.
Setting [6] is: source organism: Triticum aestivum.
The mark [7] stands for this setting: source organism: Mopeia Lassa virus reassortant 29.

In the case of KSVTKSSSWK, the dissociation constant Kd is 376 nM with HLA-A*31:01 (setting [1]); 13.8 nM with HLA-A*11:01 (setting [1]); 10 nM in the assay with HLA-A*03:01 (setting [1]); at least 55700 nM with HLA-A*33:01 (setting [1]); 79 nM with HLA-A*68:01 (setting [1]).

Consider LQFAYSNRNR, for which the Kd in the assay with HLA-A*31:01 (setting [2]) came to 5.59 nM; with HLA-A*11:01 (setting [2]), 1730 nM; with HLA-A*03:01 (setting [2]) it was 890 nM; with HLA-A*33:01 (setting [2]), 1270 nM; in the assay with HLA-A*68:01 (setting [2]), 1050 nM.

Take IFFTTSLFLH: the dissociation constant Kd with HLA-A*31:01 (setting [3]) was determined as 1360 nM; with HLA-A*11:01 (setting [3]) it was 17600 nM; in the assay with HLA-A*03:01 (setting [3]), 1030 nM; in the assay with HLA-A*33:01 (setting [3]) it was 1040 nM; with HLA-A*68:01 (setting [3]), 3490 nM.

In the case of SNSKEIPSFR, the dissociation constant (Kd) with HLA-A*31:01 (setting [4]) is 650 nM; with HLA-A*11:01 (setting [4]), 1880 nM; in the assay with HLA-A*03:01 (setting [4]) it was at least 33300 nM; with HLA-A*33:01 (setting [4]), 540 nM; with HLA-A*68:01 (setting [4]), 315 nM.

As to KFGNSINVK, the Kd with HLA-A*31:01 (setting [1]) was 618 nM; in the assay with HLA-A*11:01 (setting [1]), 6460 nM; in the assay with HLA-A*03:01 (setting [1]), 7140 nM; in the assay with HLA-A*33:01 (setting [1]), at least 77700 nM; with HLA-A*68:01 (setting [1]), at least 46400 nM.

Consider NTIDKSSPLY, for which the equilibrium dissociation constant (Kd) with HLA-A*31:01 (setting [1]) is at least 70000 nM; with HLA-A*11:01 (setting [1]) it was 1660 nM; with HLA-A*03:01 (setting [1]), 7970 nM; with HLA-A*33:01 (setting [1]) it was at least 70000 nM; with HLA-A*68:01 (setting [1]), 85.4 nM.

Take CLEWLRAKRK: the Kd with HLA-A*31:01 (setting [1]) was 2720 nM; with HLA-A*11:01 (setting [1]) it was 19500 nM; with HLA-A*03:01 (setting [1]), 1000 nM; with HLA-A*33:01 (setting [1]) it was 11300 nM; with HLA-A*68:01 (setting [1]) it was at least 57300 nM.

As to PLNEGVMAV, the Kd with HLA-A*02:03 was 21.5 nM.

Consider LSKRERQLAK, for which the dissociation constant Kd in the assay with HLA-A*31:01 (setting [1]) is 1600 nM; with HLA-A*11:01 (setting [1]), 1120 nM; with HLA-A*03:01 (setting [1]), 1360 nM; with HLA-A*33:01 (setting [1]), at least 57900 nM; with HLA-A*68:01 (setting [1]) it was 5940 nM.

Turning to YITIQDRPR, the Kd is 138 nM with HLA-A*31:01 (setting [1]); at least 44800 nM in the assay with HLA-A*11:01 (setting [1]); at least 78000 nM in the assay with HLA-A*03:01 (setting [1]); 187 nM in the assay with HLA-A*33:01 (setting [1]); 26.2 nM with HLA-A*68:01 (setting [1]).

Turning to PLLCTLNKSH, the dissociation constant Kd was at least 70000 nM in the assay with HLA-A*31:01 (setting [5]); at least 69700 nM with HLA-A*11:01 (setting [5]); at least 70000 nM with HLA-A*03:01 (setting [5]); at least 70000 nM in the assay with HLA-A*33:01 (setting [5]); at least 70100 nM with HLA-A*68:01 (setting [5]).

As to AARILSEKRK, the equilibrium dissociation constant (Kd) was at least 63700 nM in the assay with HLA-A*31:01 (setting [1]); 3140 nM with HLA-A*11:01 (setting [1]); 7880 nM with HLA-A*03:01 (setting [1]); at least 70000 nM in the assay with HLA-A*33:01 (setting [1]); 8050 nM with HLA-A*68:01 (setting [1]).

For the sequence QLLQELCCQH, the Kd with HLA-A*31:01 (setting [6]) is at least 70000 nM; in the assay with HLA-A*11:01 (setting [6]), at least 69800 nM; with HLA-A*03:01 (setting [6]), at least 27100 nM; with HLA-A*33:01 (setting [6]) it was at least 70000 nM; in the assay with HLA-A*68:01 (setting [6]), 17400 nM.

For the sequence SVNEYHMLK, the Kd in the assay with HLA-A*31:01 (setting [1]) is 6.92 nM; with HLA-A*11:01 (setting [1]), 2.23 nM; with HLA-A*03:01 (setting [1]) it was 6.1 nM; with HLA-A*33:01 (setting [1]), 85.7 nM; with HLA-A*68:01 (setting [1]) it was 2.24 nM.

As to ALCEKALKY, the Kd with HLA-A*31:01 (setting [2]) was at least 65100 nM; with HLA-A*11:01 (setting [2]) it was 1440 nM; with HLA-A*03:01 (setting [2]), 234 nM; with HLA-A*33:01 (setting [2]) it was at least 35800 nM; with HLA-A*68:01 (setting [2]), 13000 nM.

Take IQVTISSYK: the dissociation constant Kd came out at 139 nM with HLA-A*31:01 (setting [2]); 10.8 nM in the assay with HLA-A*11:01 (setting [2]); 15.4 nM with HLA-A*03:01 (setting [2]); 7950 nM in the assay with HLA-A*33:01 (setting [2]); 274 nM in the assay with HLA-A*68:01 (setting [2]).

Consider MFLTSVINR, for which the Kd with HLA-A*31:01 (setting [1]) worked out at 1.16 nM; with HLA-A*11:01 (setting [1]) it was 283 nM; with HLA-A*03:01 (setting [1]), 355 nM; with HLA-A*33:01 (setting [1]), 0.841 nM; with HLA-A*68:01 (setting [1]) it was 18.8 nM.

LTKFVAAALH: the Kd with HLA-A*31:01 (setting [7]) stood at 694 nM; with HLA-A*11:01 (setting [7]), 5660 nM; in the assay with HLA-A*03:01 (setting [7]) it was 16000 nM; with HLA-A*33:01 (setting [7]) it was 5610 nM; in the assay with HLA-A*68:01 (setting [7]), 164 nM.

DADPPIPYSR: the Kd in the assay with HLA-A*31:01 (setting [1]) was 10100 nM; with HLA-A*11:01 (setting [1]), 16400 nM; with HLA-A*03:01 (setting [1]), at least 70100 nM; with HLA-A*33:01 (setting [1]) it was 2690 nM; with HLA-A*68:01 (setting [1]), 509 nM.
